Test results taken from the nanobody polyreactivity screen of Harvey et al. (2022).

Experiment: yeast display, Sf9 membrane polyspecificity reagent, FACS + sequencing; frameworks hold sequencing errors
Procedure, shortened: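 Nanobodies from a synthetic yeast display library (Saccharomyces cerevisiae BJ5465), induced 36–48 hours with galactose, were stained 1 hour at 4 °C with 10% biotinylated, detergent-solubilized Sf9 membrane reagent, enriched on streptavidin microbeads, then FACS-sorted. Anti-HA (expression) and streptavidin (reagent binding) fluorescence set low and high (top ~1%) gates. Polyreactivity labels come from the gate of origin. Genes were colony-PCR amplified, MiSeq 2 × 250 sequenced and filtered by CDR length.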

| Sequence | polyreactivity (PSR sort gate) |
| --- | --- |
| QVQLEESGGGLVQAGGSLRLSCAASGITFERYVMGWYRQAPGKERELVASISRSGSTYYADSVKGRFTISRDNAKNTVYLQMNSLKPEDTAVYYCNADRFWFHWVYSRYHYDYWGQGTQVTVSS | high polyreactivity |
| QVQLEESGGGLVQAGGSLRLSCAASGITFFHYAMGWSRPAPGKERELVAAITWRGSSTYYADSVKGRFTMSRDNAKNTVYLQMNSLKPEDTAVYYCNAEVGYYEYDYWGQGTQVTVSS | high polyreactivity |
| QVQLEESGGGLVQAGGSLRLSCAASGITFLRNAMGWYSQAPGKERELVAAISRSGGRTYYADSVKGRFTISRDNAQNTVYLQMNSLKPEDTAVYYCAVVTQFGDGYYWGQGTQVTVSS | high polyreactivity |
| QVQLEESGGGLVQAGGSLRLSCAASGITFLTYAMGWYRQATVKERELVAGITSGGTTYYADSVKGRFTISRDNAMNTVYLQMNSLKPEDTAVYYCNADLQEYQSYDYWGQGTQVTVSS | low polyreactivity |
| QVQLEESGGGLVQAGGSLRLSCAASGLIFIYNTMGWYRQAPGKERQLVAAISGRGGSTYYADSVKGRFTISRDNAKNSVYLQMNSLKPEDTAVYYCAAQDTYHSYGLYSWGQGTQVTVSS | low polyreactivity |
| QVQLEESGGGLVQAGGSLRLSCAASGLTFATYAIGWYRQAPGKERELVAAISRSGGRTYFADSVKGRFTISRDNAKNTVYLQMNSLKPEDTAVYYCNADFYASDDYWGQGTQVTVSS | high polyreactivity |
| QVQLEESGGGLVQAGGSLRLSCAASGLTFEWYTMGWYRQAPGKERELVAVITVSGSSTYYADSVKGRFSISRDNAKNTVYLQMNSLKPEDTAVYYCNADWSFYSYTLYDYWGQGTQVTVSS | low polyreactivity |
| QVQLEESGGGLVQAGGSLRLSCAASGLTLYKNGMGWYRQSPGKERELVAVISRSGGRTYYADSVKGRFTISRDNAKNTVYLQMNSLKPDDTAVYYCAARQYGPRYTYYYWGQGTQVTVSS | high polyreactivity |
| QVQLEESGGGLVQAGGSLRLSCAASGNIFLIYAMGWYRQAPRKEVEMVAAISFSDDTTDYADSVKGRFTSSRDNAKNTVYLQLNSLKQEDTAVYFCAAELYYDVANTQYDYWGQGTQVTVSS | high polyreactivity |
| QVQLEESGGGLVQAGGSLRLSCAASGNIFWGNAMGWYRQAPGKEMELVAAITSIDSSTYYADSVKGRFTISRDNAKNTVYLQMNSLKPEDTAVYYCAADGDWYGYIWQSDDGYDSWGQGTQVTVSS | low polyreactivity |
| QVQLEESGGGLVQAGGSLRLSCAASGRIFDVNAMGWYRQAPGKERELVPRITSDGGTYYADSVKGRFTISRDNAKNTVYLQMNSLKPEDTAVYYCNAPYWFSPGYGGFEFGYDYWGQGTQVTVSS | low polyreactivity |
| QVQLEESGGGLVQAGGSLRLSCAASGRIFEYYAMGWYRQAPGIERELVAAINTGGNTYYADSVKGRFTISRDNAKNTVYLQMNSLKPEDTAVYYCATYPIWYGGYLSGTDYDYWGQGTQVTVSS | low polyreactivity |
| QVQLEESGGGLVQAGGSLRLSCAASGRIFGGYAMGWYRQAPGKERELVAAISRNGGNTYYADSVKGRFTISRDNAKNTVYLQMNSLKPEDTAVYYCAATYDGTYDYWGQGTQVTVSS | high polyreactivity |
| QVQLEESGGGLVQAGGSLRLSCAASGRIFKRYAMGWYRQAPGKERELVAAITWSGTRTYYADSVKGRFTISRDNAKNTVYLQMNSLKPEDTAVYYCAADQKYHQRPSEYGYWGQGTQVTVSS | high polyreactivity |
| QVQLEESGGGLVQAGGSLRLSCAASGRIFPYYTMGWYRQAPGKERELVAAISWSGGSTYYADSVKGRFTISRDNAKNTVYLQMNSLKPEDTAVYYCNVRKVYRYQYRFEYWGQGTQVTVSS | high polyreactivity |
| QVQLEESGGGLVQAGGSLRLSCAASGRIFSYNAMGWSIPAPGKERELVAAISYSGGRTYYADSVKGRFTISRDNAKNTVYLQMNSLKPEDTAVYYCAAKRKIRGYGPYEYWGQGTQVTVSS | high polyreactivity |
| QVQLEESGGGLVQAGGSLRLSCAASGRIFYLNAIGWYRQAPRKATELVAAINTSGDSTYYADSVKGRFTISRDNAKNTVYLQMNSLKPEDTAVYYCAAFGIGPDQFIYDYWGQGTKVTVSS | low polyreactivity |
| QVQLEESGGGLVQAGGSLRLSCAASGRIFYYYTMGWYRQAPGKERELVAAISWGGVNTDYADSVKGRFTISRDNAKNTVYLQMNSLKPEDTAVYYCAAGRWSVGTYDYWGQGTQVTVSS | low polyreactivity |
| QVQLEESGGGLVQAGGSLRLSCAASGRNFLYNAMGWYRQAPGKERELVAAITASGGTTYYADSVKGRFTISRDNAKNNVYLQMNSLKPEDTAVYYCNAYSYSGERYYWGQGTQVTVSS | high polyreactivity |
| QVQLEESGGGLVQAGGSLRLSCAASGRTFDRYAMGWYRQAPGKERELVAAITWSGGRTYYADSVKGRFTISRDNPKNTVYLQMNSLKPEDTAVYYCATAYYYHGGYYYPYDVDYWGQGTQVTVSS | low polyreactivity |
| QVQLEESGGGLVQAGGSLRLSCAASGRTFGRNAMGWYRQAPGERELVAVISRGGSTYYADSVKGRFTISRDNAKNSVYLQMNSLIPEDTAVYYCNADTVYTRTAPYDYWGQGTQVTVSS | low polyreactivity |
| QVQLEESGGGLVQAGGSLRLSCAASGRTFITYAMGWYRQAPGKVRELVASITSNGGRTYYADSVKGRFKISRDNAKNTVYLQMNSLKPEYTAVYYCSAGTRSRAPYYRTSVDTYGYWGQGTQVTVSS | low polyreactivity |

| Sequence | polyreactivity (PSR sort gate) |
| --- | --- |
| QVQLEESGGGLVQAGGSLRLSCAASGRTFNKNAMGWYRQAPGKERELVAAISYSGGRTYYADSVKGRFTISRDNAKNTVYLQMNSLKPEDTAVYYCAAWGSSYSFDYWGQGTQVTVSS | high polyreactivity |
| QVQLEESGGGLVQAGGSLRLSCAASGRTFSGYAMGSYRQAPGKDRELVAAITRRGGTTYYADSVKGRFTISRDNAKNTVYLQMNSLKPEDTAVYYCAAAKPRVISQKIIYYYWGQGTQVTVSS | high polyreactivity |
| QVQLEESGGGLVQAGGSLRLSCAASGRTFVWYAMGWYRQAPGKERELVAAISRSGGSTYYADSVKGRFTISRDNAKNTVYLQMNSLKPEDTAVYYCAAEFYIAPPYDYWGQGTQVTVSS | high polyreactivity |
| QVQLEESGGGLVQAGGSLRLSCAASGRTFWDNARGWNRQAPGKERELVATITSGDSTNYAASVKGRFTISRDNAKNTVYLQMNSLKPEDTAVYYCARVIVFDAYEFDYWGQGTQVTVSS | low polyreactivity |
| QVQLEESGGGLVQAGGSLRLSCAASGRTFYRYAMGWYRQAPGKERELVATISSRGTSTYYADSVKGRFTISRDNAKNTVYLQMNSLKPEDTAVYYCAVRGYAAGRHGYDYWGQGTQVTVSS | high polyreactivity |
| QVQLEESGGGLVQAGGSLRLSCAASGRTINGNTMGWYRQAPGKERELVAVIDWSGGSTYYADSVKGRFTISRDNAKNTVYLQMNSLKPEDTAVYYWNAETRDPILYGEYDYWGQGTQVTVSS | low polyreactivity |
| QVQLEESGGGLVQAGGSLRLSCAASGRTLGYNAMGWYRQAPGKERELVAAISYGGGGTYYADSVKGRFTISRDNAKNTVYLQMNSLKPEDSAVYYCAKPRAFVGYNHWGQGTQVSVSS | low polyreactivity |
| QVQLEESGGGLVQAGGSLRLSCAASGSIFAVYAKGWYRQAPGKEREFVARISWGGGRTYYADSVKGRFTISRDNAKNTVYLQMNSLKPEDTAVYYCAATFRARPRENYWGQGTQVTVSS | high polyreactivity |
| QVQLEESGGGLVQAGGSLRLSCAASGSIFDPNAMGWYRKAPGKERELVADIDSSDGSTYYADSVKGRFTISRDNAKNTVYLQMNSLKPEDTAVYYCNARYGGWVWSTYDHWGQGTQVTVSS | low polyreactivity |
| QVQLEESGGGLVQAGGSLRLSCAASGSIFEWNDMGWSRQAPGKEREFVAAITSTDDGTYYADSVKGRFTISRDNAKNTVYLQMNSLKPEDTAVYYCAKRAWGSPYGYWGQGTQVTVSS | low polyreactivity |
| QVQLEESGGGLVQAGGSLRLSCAASGSIFIANAMGWYRQAPGKERELVAVINWGDGSTYADSVKGRFTISRDNAKNTVYLQMNSLKPEDTAVYYCNAPDEVNDVRYDYWGQGTQVTVSS | low polyreactivity |
| QVQLEESGGGLVQAGGSLRLSCAASGSIFQINAMGWYRQAPGKERELVAAITRGGGTTYYADSVKGRFTISRDNAKNTVYLQMNSLKPEDTAVYYCAADFERRRYDYWGQGTQVTVSS | low polyreactivity |
| QVQLEESGGGLVQAGGSLRLSCAASGSIFRYNAMGWYRQAPGKERELVAAITSGDSTYYADSVKGRFTISRDNAKNTVYLQMNSLKPEDTAVYYCAADLRYIYWSYYYWGQGTQVTVSS | low polyreactivity |
| QVQLEESGGGLVQAGGSLRLSCAASGSIFSYYVMGWYRQAPGKERELVARNSKRGVTTYYADSVKGRFTISRDNAKNTVYLQMNSLKPEDTAVYFCAASVWRDRIYRYEYWGQGTQVTVSS | high polyreactivity |
| QVQLEESGGGLVQAGGSLRLSCAASGSIFVYYRMGWYRQAPGKERELVAAISSGGSTHYADSVKGRFTISRDNAKNTVYLQMNSLKPEDTAFYYRNDRAYGNGMGTGYFGKHRYDYWGQGTQVTVSS | low polyreactivity |
| QVQLEESGGGLVQAGGSLRLSCAASGSIFYYYVMGWCRQAPGKERELVAAISSGGGTNYADSVKGRFTISRDNAKNTVYLQMNSLKPEDTAVYYCAKASAYGLANDYDYWGQGTQVTVSS | low polyreactivity |
| QVQLEESGGGLVQAGGSLRLSCAASGSILFFNAKGWYRQAPGKERELVADISTGGSTYYADSVKGRFTISRDNAKNTVYLQMNSLKPEDTAVYYCNADYYYFFYTLDYWGQGTQVTVSS | high polyreactivity |
| QVQLEESGGGLVQAGGSLRLSCAASGSILIYNAMGLYRQATGKERELVAGISRRGASTYYADSVKGRFTISRDYAKNTVYLQMNSLKPEDTAVYYCATRKLRTRGYDYGYWGQGTQVTVSS | low polyreactivity |
| QVQLEESGGGLVQAGGSLRLSCAASGSILLGYDMGWYRTAPGKERELVASIDTNGGSPYYADSVKGRFTISRDNAKNTVYLQSNSLKPEDTAVYYCNADPSFVGGTYDYWGQGTQVTVSS | low polyreactivity |
| QVQLEESGGGLVQAGGSLRLSCAASGSTFFLYAMGWYRQAPGKERELVAAITYTDGDTYYADSVKGRFTISRDNAKNTVYLQMNSLKPEDTAVYYCNAGGDEPVYGSGYDYWGQGTQVTVSS | low polyreactivity |
| QVQLEESGGGLVQAGGSLRLSCAASGSTFGRNTLGSYRPAPGKERELVAVISRRGGITTYADSVKGRFTISRENAKNTVYLQMNSLKPVDTAVYYCNAVSRVYNKGQYGYWGQGTQVSVSS | high polyreactivity |
